Experimental data: patent US20110281938A1 (BAXTER INTERNATIONAL, published 2011)

Molecular target: T1, Full-length TFPI (recombinant human tissue factor pathway inhibitor, American Diagnostica, E. coli expressed) (human, UniProt P10646 29-304)
T1 construct: also called recombinant TFPI; human TFPI
T1 sequence: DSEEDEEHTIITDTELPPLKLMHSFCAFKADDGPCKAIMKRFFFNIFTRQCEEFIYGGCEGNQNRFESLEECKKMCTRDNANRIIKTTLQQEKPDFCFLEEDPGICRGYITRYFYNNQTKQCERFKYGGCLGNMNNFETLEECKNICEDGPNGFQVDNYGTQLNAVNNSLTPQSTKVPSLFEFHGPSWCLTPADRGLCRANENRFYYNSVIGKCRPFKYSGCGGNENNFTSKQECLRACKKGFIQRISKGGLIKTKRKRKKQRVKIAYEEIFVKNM
Assay: dot-blot (nitrocellulose filtration) binding competition: 10 nM TFPI, trace radiolabeled aptamer ARC17480 as the displaced ligand, FXa varied 2000-0.10 nM
Experimental: For these experiments, human TFPI at a final concentration of 10 nM (American Diagnostica, Stamford, Conn., catalog #4900PC) was incubated with trace amounts of radiolabeled ARC17480 and different concentrations of human FXa (Haematologic Technologies, Essex Junction, Vt. catalog #HCXA-0060) or ARC19499 (2000 nM-0.10 nM). A control was also carried out in the absence of TFPI in which trace amounts of radiolabeled ARC17480 was incubated with different concentrations of FXa (2000 nM-0.10 nM). The percentage of radiolabeled ARC17480 bound was plotted as a function of competitor concentration and fit to the equation y=(max/(1+x/IC₅₀))+int, where y=the percentage of radiolabeled ARC17480 bound, x=the concentration of competitor, max=the maximum radiolabeled ARC17480 bound, and int=the y-intercept, to generate an IC₅₀ value for binding-competition. […] FXa partially competes with ARC17480 for binding to TFPI, as evidenced by a plateau in the competition-binding curve at concentrations above ˜75 nM. In contrast, ARC19499 completely competes with radiolabeled ARC17480 for binding to TFPI.

IC50 (read off the curve): ~7 nM
B1: human FXa (Haematologic Technologies, catalog #HCXA-0060) (enzyme)
chain 1: ANSFLEEMKKGHLERECMEETCSYEEAREVFEDSDKTNEFWNKYKDGDQCETSPCQNQGKCKDGLGEYTCTCLEGFEGKNCELFTRKLCSLDNGDCDQFCHEEQNSVVCSCARGYTLADNGKACIPTGPYPCGKQTLER
chain 2: IVGGQECKDGECPWQALLINEENEGFCGGTILSEFYILTAAHCLYQAKRFKVRVGDRNTEQEEGGEAVHEVEVVIKHNRFTKETYDFDIAVLRLKTPITFRMNVAPACLPERDWAESTLMTQKTGIVSGFGRTHEKGRQSTRLKMLEVPYVDRNSCKLSSSFIITQNMFCAGYDTKQEDACQGDSGGPHVTRFKDTYFVTGIVSWGEGCARKGKYGIYTKVTAFLKWIDRSMKTRGLPKAKSHAPEVITSSPLK
notes: FXa is a two-chain protease; also called Factor Xa
